Results on 3 molecules are retold here after patent US20170007716A1 (ONCOMATRYX BIOPHARMA S L, published 2017).

In general, EC50 refers to the concentration needed to bring the measured effect to its halfway point. What is called Kd is the concentration at which binding is half-saturated.

The target in experiment [1] is T1, human FAP on HT1080 cells (HT1080-huFAP, stable transfectants) (human, UniProt Q12884 1-760).
T1 sequence: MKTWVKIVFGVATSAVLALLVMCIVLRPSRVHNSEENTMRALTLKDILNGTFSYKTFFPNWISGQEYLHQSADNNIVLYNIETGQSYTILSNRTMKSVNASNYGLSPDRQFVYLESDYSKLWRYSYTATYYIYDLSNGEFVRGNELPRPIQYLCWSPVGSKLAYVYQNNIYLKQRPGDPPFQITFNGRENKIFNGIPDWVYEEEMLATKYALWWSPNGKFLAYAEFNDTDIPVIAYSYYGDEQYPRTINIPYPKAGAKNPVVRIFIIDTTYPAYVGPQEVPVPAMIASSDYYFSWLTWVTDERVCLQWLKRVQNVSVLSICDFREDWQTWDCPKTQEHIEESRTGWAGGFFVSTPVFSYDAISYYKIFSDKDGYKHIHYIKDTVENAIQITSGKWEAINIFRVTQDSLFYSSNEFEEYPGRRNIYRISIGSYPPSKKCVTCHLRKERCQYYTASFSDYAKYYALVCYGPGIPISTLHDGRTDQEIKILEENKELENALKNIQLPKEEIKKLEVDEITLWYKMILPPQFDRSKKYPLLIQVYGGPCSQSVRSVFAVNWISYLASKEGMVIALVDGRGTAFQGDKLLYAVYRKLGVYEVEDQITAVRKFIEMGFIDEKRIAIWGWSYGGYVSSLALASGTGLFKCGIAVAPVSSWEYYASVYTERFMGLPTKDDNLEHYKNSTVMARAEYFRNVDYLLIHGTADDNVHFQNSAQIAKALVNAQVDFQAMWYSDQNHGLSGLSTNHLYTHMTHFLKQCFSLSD
Kind of experiment: cell-based or functional assay.

Experiment [2] concerns the target T1, human FAP on HT1080 cells …. The experiment is described as follows: cell-based or functional assay. This is another data set of the same source.
Experiment [3] deals with T2, recombinant human FAP (extracellular region aa 26-760; R&D systems) (human, UniProt Q12884 26-760).
T2 construct: also called rhFAP; recombinant FAP
T2 sequence: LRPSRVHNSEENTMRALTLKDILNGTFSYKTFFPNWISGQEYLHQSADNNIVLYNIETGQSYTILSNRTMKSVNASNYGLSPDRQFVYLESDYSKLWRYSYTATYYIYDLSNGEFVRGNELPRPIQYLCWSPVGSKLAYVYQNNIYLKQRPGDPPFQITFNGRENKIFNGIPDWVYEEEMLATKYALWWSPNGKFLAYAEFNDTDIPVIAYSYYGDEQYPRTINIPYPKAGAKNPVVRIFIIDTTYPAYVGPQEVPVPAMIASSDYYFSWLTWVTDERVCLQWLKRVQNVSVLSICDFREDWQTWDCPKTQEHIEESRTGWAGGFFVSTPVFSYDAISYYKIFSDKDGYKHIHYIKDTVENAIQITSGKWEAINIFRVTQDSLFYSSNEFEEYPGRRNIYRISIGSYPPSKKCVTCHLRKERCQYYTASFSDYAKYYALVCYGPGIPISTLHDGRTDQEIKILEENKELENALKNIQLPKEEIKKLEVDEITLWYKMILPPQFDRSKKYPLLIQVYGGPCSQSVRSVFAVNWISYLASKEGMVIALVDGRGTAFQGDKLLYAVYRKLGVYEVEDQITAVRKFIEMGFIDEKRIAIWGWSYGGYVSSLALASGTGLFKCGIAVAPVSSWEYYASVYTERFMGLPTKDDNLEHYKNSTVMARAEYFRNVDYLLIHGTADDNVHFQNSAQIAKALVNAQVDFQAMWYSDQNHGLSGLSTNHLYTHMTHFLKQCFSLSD
The experiment is described as follows: ELISA, rhFAP. A general note: An ELISA detects its analyte on a solid surface through an enzyme-linked reagent.

Experiment [4] has as its target T1, human FAP on HT1080 cells …. Kind of experiment: FACS, HT1080-huFAP cells. In general terms: A flow cytometer gives signals particle by particle.
The target in experiment [5] is T3, mouse FAP on HT1080 cells (HT1080-moFAP) (mouse, UniProt P97321 1-761).
T3 construct: Murine FAP on stably transfected HT1080 cells; also called murine FAP
T3 sequence: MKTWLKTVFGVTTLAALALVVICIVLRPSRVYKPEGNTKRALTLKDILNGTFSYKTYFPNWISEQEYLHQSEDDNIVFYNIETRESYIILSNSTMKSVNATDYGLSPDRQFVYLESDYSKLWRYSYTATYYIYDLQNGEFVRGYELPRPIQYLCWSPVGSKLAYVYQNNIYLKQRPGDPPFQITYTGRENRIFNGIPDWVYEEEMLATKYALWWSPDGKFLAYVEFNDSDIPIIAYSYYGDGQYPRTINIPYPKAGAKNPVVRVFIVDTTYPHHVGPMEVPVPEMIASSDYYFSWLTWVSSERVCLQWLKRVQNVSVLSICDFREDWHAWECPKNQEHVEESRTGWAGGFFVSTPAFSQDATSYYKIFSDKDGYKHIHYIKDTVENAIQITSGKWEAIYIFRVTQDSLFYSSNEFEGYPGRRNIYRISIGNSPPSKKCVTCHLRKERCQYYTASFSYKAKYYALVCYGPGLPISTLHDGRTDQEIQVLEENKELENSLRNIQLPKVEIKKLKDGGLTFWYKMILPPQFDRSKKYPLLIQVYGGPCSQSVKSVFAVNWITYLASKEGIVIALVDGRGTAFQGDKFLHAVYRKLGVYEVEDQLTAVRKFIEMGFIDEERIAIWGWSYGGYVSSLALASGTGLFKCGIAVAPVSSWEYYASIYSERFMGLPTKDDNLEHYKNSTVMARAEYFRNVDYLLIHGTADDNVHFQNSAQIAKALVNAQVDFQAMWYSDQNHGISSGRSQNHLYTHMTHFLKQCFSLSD
The experiment is described as follows: FACS, HT1080-moFAP cells.

Experiment [6] concerns the target T2, recombinant human FAP (extracellular …). The experiment is described as follows: ELISA, recombinant FAP coated.
Experiment [7] shares this target. Kind of experiment: QCM (Attana A100), rhFAP; KD1.
The target is the same in experiment [8]. Kind of experiment: QCM (Attana A100), rhFAP; KD2.
The target in experiment [9] is T1, human FAP on HT1080 cells …. Kind of experiment: flow cytometry, HT1080-huFAP cells.
For experiment [10], the target named is T3, mouse FAP on HT1080 cells (HT1080-moFAP). The experiment is described as follows: flow cytometry, HT1080-moFAP cells.

B1: Anti-FAP hu36-IgG1-recNgA immunotoxin conjugate HPS131-001-1 (antibody)
heavy: QVQLVQSGAEVKKPGASVKVSCKASGYTFTENIIHWVRQAPGQGLEWMGWFHPGSGSIKYNEKFKDRVTMTADTSTSTVYMELSSLRSEDTAVYYCARHGGTGRGAMDYWGQGTLVTVSSASTKGPSVFPLAPSSKSTSGGTAALGCLVKDYFPEPVTVSWNSGALTSGVHTFPAVLQSSGLYSLSSVVTVPSSSLGTQTYICNVNHKPSNTKVDKKVEPKSCDKTHTCPPCPAPPVAGPSVFLFPPKPKDTLMISRTPEVTCVVVDVSHEDPEVKFNWYVDGVEVHNAKTKPREEQYNSTYRVVSVLTVLHQDWLNGKEYKCKVSNKGLPSSIEKTISKAKGQPREPQVYTLPPSRDELTKNQVSLTCLVKGFYPSDIAVEWESNGQPENNYKTTPPVLDSDGSFFLYSKLTVDKSRWQQGNVFSCSVMHEALHNHYTQKSLSLSPGK
light: DIQMTQSPSSLSASVGDRVTITCRASKSVSTSAYSYMHWYQQKPGKAPKLLIYLASNLESGVPSRFSGSGSGTDFTLTISSLQPEDFATYYCQHSRELPYTFGQGTKLEIKRTVAAPSVFIFPPSDEQLKSGTASVVCLLNNFYPREAKVQWKVDNALQSGNSQESVTEQDSKDSTYSLSSTLTLSKADYEKHKVYACEVTHQGLSSPVTKSFNRGEC
chain: MIDYPSVSFNLDGAKSATYRDFLSNLRKTVATGTYEVNGLPVLRRESEVQVKSRFVLVPLTNYNGNTVTLAVDVTNLYVVAFSGNANSYFFKDATEVQKSNLFVGTKQNTLSFTGNYDNLETAANTRRESIELGPSPLDGAITSLYHGDSVARSLLVVIQMVSEAARFRYIEQEVRRSLQQATSFTPNALMLSMENNWSSMSLEIQQAGNNVSPFFGTVQLLNYDHTHRLVDNFEELYKITGIAILLFRCSSPSND
modifications: single cysteine in a hindered disulphide bond to the SMPT-derivatised antibody; derivatised with SMPT on amino groups; disulphide link to recNgA
For the molecule B1, the “cytotoxicity on HT1080-FAP cells (cell viability), IC50” value in experiment [1] came to 5000 nM.

B2: ADC-558 (HPS-157-039-005), anti-FAP hu36:TAM558 ADC (antibody, V domains shown)
VH: QVQLVQSGAEVKKPGASVKVSCKASGYTFTENIIHWVRQAPGQGLEWMGWFHPGSGSIKYNEKFKDRVTMTADTSTSTVYMELSSLRSEDTAVYYCARHGGTGRGAMDYWGQGTLVTVSS
VL: DIQMTQSPSSLSASVGDRVTITCRASKSVSTSAYSYMHWYQQKPGKAPKLLIYLASNLESGVPSRFSGSGSGTDFTLTISSLQPEDFATYYCQHSRELPYTFGQGTKLEIKR
modifications: cytolysin-linker TAM558 on cysteine residues (not site-specific); cytolysin-linker TAM558 (vcPABA linker in R4 with 3 ethylene glycol spacer) on cysteine residues (not site-specific), DAR 3.92 for the whole antibody
Regarding B2, the “specificity ratio between FAP(+) and FAP(-) HT1080 cells (cytotoxic activity)” value in experiment [1] is 500. Further, in experiment [2], the “IC50 in Proliferation Arrest Assay (nM), HT1080-FAP” value was 0.96 nM.

B3: humanized anti-FAP IgG1 hu36 (hu36-IgG1) (antibody, V domains shown)
VH: QVQLVQSGAEVKKPGASVKVSCKASGYTFTENIIHWVRQAPGQGLEWMGWFHPGSGSIKYNEKFKDRVTMTADTSTSTVYMELSSLRSEDTAVYYCARHGGTGRGAMDYWGQGTLVTVSS
VL: DIQMTQSPSSLSASVGDRVTITCRASKSVSTSAYSYMHWYQQKPGKAPKLLIYLASNLESGVPSRFSGSGSGTDFTLTISSLQPEDFATYYCQHSRELPYTFGQGTKLEIKR
notes: Full-length humanized IgG1/kappa, gamma1* = deficient for ADCC and CDC; made in CHO cells; also called anti-hu/moFAP hu36; naked anti-FAP hu36-IgG1
B3: the EC50 was 3 nM in [3]; 0.3 nM in [4]; 0.2 nM in [5]; ~5 nM in experiment [6]; 0.33 nM in experiment [9]; 0.25 nM in experiment [10]. Moreover, the Kd in experiment [7] came out at 218 nM; in experiment [8] it was 0.4 nM.
